The values below come from article PMC10817852, “Vascular injury activates the ELK1/SND1/SRF pathway to promote vascular smooth muscle cell proliferative phenotype and neointimal hyperplasia”.

One series has as its target T1, SRF (1-266) (UniProt P11831 1-266).
T1 sequence: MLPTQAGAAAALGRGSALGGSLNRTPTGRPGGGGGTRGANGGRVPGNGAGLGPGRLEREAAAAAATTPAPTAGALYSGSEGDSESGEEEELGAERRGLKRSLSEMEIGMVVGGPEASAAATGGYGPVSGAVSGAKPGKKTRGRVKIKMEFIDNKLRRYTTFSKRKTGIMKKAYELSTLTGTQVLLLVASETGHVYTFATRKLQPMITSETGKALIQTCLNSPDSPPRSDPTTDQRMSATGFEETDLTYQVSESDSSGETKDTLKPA
Nature of the series: EMSA; unlabeled probe (200-fold) diminished binding; Beyotime GS009 chemiluminescent EMSA kit binding buffer (composition, salt and pH not given), 20 fmol biotin probe, 0.1 ug protein, 10 min at room temperature. The conditions noted are these: protein: recombinant; (GST fusions described); chain copies: 2; label: biotin; blunt. (Mobility shift assays separate free from complexed probe on a gel.)

The target in a further series is T2, SND1 (1-660) (UniProt Q78PY7 1-660).
T2 sequence: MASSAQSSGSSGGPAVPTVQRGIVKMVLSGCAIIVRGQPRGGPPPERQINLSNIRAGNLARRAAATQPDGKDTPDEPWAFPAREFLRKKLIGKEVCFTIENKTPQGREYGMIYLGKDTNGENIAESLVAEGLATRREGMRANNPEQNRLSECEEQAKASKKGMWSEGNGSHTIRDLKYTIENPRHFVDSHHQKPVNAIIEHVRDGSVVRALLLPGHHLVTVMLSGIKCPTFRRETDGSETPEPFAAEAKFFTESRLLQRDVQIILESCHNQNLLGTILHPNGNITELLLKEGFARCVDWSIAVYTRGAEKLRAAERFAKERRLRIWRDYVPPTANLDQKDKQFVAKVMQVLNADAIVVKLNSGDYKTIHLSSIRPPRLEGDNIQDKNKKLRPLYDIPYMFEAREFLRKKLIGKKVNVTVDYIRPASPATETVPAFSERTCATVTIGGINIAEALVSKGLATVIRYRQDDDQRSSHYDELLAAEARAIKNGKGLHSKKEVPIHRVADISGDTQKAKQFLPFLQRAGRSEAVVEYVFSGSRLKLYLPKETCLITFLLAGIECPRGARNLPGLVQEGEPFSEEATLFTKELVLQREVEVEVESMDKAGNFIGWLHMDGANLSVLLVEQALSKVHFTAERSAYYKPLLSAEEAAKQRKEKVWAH
As to the kind of experiment: EMSA; SND1 alone; Beyotime GS009 chemiluminescent EMSA kit binding buffer (composition, salt and pH not given), 20 fmol biotin probe, 0.1 ug protein, 10 min at room temperature. The conditions noted are these: protein: recombinant; label: biotin; blunt.

B1: Fos CArG probe (dsDNA)
DNA 1: CCATATTAGGCCATATTAGGCCATATTAGGCCATATTAGGCCATATTAGG
DNA 2: CCTAATATGGCCTAATATGGCCTAATATGGCCTAATATGGCCTAATATGG
For the molecule B1, the binding result is reported as “binds” in the series with SRF (1-266) and “no binding” with SND1 (1-660).
